The source of these data is paper PMC4884500 (DNA repair, 2016).

For assay [1], the target named is Full-length MmRAD51D (yeast two-hybrid fusion) (mouse) (UniProt O55230). As to the kind of experiment: two-hybrid.
The target of assay [2] is T1, Full-length MmRAD51D (yeast two-hybrid fusion) (mouse, UniProt O55230 1-329).
T1 sequence (looked up): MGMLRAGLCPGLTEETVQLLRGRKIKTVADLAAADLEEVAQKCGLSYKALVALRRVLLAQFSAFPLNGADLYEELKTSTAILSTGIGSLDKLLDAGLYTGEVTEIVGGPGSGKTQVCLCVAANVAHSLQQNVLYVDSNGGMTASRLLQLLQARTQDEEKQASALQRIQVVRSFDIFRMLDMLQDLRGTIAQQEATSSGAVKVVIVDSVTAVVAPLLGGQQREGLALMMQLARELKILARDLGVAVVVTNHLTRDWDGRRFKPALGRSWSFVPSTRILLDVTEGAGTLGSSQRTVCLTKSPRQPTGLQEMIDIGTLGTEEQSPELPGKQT
Description: two-hybrid.

“MmRnf138-Δ5 (RNF138 splice variant with a deletion of exon 5, yeast two-hybrid fusion) (natural protein)”: in assay [1], the fold decrease in the level of interaction against full-length RNF138 came out at 8 fold. Same read-out and setting: the same measure for “MmRnf138-Δ7 (RNF138 splice variant with a deletion of exon 7, yeast two-hybrid fusion) (natural protein)”: 3 fold.

B1: RNF138 (yeast two-hybrid fusion) (natural protein, mouse, UniProt Q9CQE0-1 1-245, looked up)
chain: MSEELSAATSYTEDDFYCPVCQEVLKTPVRTAACQHVFCRKCFLTAMRESGIHCPLCRGSVTRRERACPERALDLENIMRRFSGSCRCCSKKIKFYRMRHHYKSCKKYQDEYGVSSVIPNFKISQDSVRSSNRSETSASDNTETYQEDTSSSGHPTFKCPLCQESNFTRQRLLDHCNSNHLFQIVPVTCPICVSLPWGDPSQITRNFVSHLNQRHQFDYGEFVNLQLDEETQYQTAVEESFQVNM
Take B1: the “β-galactosidase level relative to the DBD-RAD51D:AD-RAD51C positive control” value in assay [2] was found to be 79%.
